Kd data for one protein are collected here from PMC10686051 (Nature structural & molecular biology, 2023).

The data set deals with the molecule itself. The data set is described as follows: MST.

B1: MRE11 structured-domain (1–411 aa) (domain or fragment, UniProt P49959 1-411, looked up)
chain: MSTADALDDENTFKILVATDIHLGFMEKDAVRGNDTFVTLDEILRLAQENEVDFILLGGDLFHENKPSRKTLHTCLELLRKYCMGDRPVQFEILSDQSVNFGFSKFPWVNYQDGNLNISIPVFSIHGNHDDPTGADALCALDILSCAGFVNHFGRSMSVEKIDISPVLLQKGSTKIALYGLGSIPDERLYRMFVNKKVTMLRPKEDENSWFNLFVIHQNRSKHGSTNFIPEQFLDDFIDLVIWGHEHECKIAPTKNEQQLFYISQPGSSVVTSLSPGEAVKKHVGLLRIKGRKMNMHKIPLHTVRQFFMEDIVLANHPDIFNPDNPKVTQAIQSFCLEKIEEMLENAERERLGNSHQPEKPLVRLRVDYSGGFEPFSVLRFSQKFVDRVANPKDIIHFFRHREQKEKTGEE
modifications: amine-reactive AlexaFluor-647 dye on the labeled copy; the titrated copy is unlabeled
As usually defined, the Kd is a measure of binding affinity in units of concentration. Low values mean higher affinity, high ones lower affinity. Protein B1 gave a Kd of 370 ± 80 nM.
